Reference: IntAct's records for PubMed 25910212

B1: Inactive peptidyl-prolyl cis-trans isomerase FKBP6 (Homo sapiens), O75344 (parent)
chain: MGGSALNQGVLEGDDAPGQSLYERLSQRMLDISGDRGVLKDVIREGAGDLVAPDASVLVKYSGYLEHMDRPFDSNYFRKTPRLMKLGEDITLWGMELGLLSMRRGELARFLFKPNYAYGTLGCPPLIPPNTTVLFEIELLDFLDCAESDKFCALSAEQQDQFPLQKVLKVAATEREFGNYLFRQNRFYDAKVRYKRALLLLRRRSAPPEEQHLVEAAKLPVLLNLSFTYLKLDRPTIALCYGEQALIIDQKNAKALFRCGQACLLLTEYQKARDFLVRAQKEQPFNHDINNELKKLASCYRDYVDKEKEMWHRMFAPCGDGSTAGES
partner: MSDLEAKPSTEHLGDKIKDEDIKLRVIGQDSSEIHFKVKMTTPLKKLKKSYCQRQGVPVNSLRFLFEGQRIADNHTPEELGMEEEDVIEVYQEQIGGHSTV
B2: Retinoic acid receptor RXR-gamma (Homo sapiens), P48443 (parent)
chain: MYGNYSHFMKFPAGYGGSPGHTGSTSMSPSAALSTGKPMDSHPSYTDTPVSAPRTLSAVGTPLNALGSPYRVITSAMGPPSGALAAPPGINLVAPPSSQLNVVNSVSSSEDIKPLPGLPGIGNMNYPSTSPGSLVKHICAICGDRSSGKHYGVYSCEGCKGFFKRTIRKDLIYTCRDNKDCLIDKRQRNRCQYCRYQKCLVMGMKREAVQEERQRSRERAESEAECATSGHEDMPVERILEAELAVEPKTESYGDMNMENSTNDPVTNICHAADKQLFTLVEWAKRIPHFSDLTLEDQVILLRAGWNELLIASFSHRSVSVQDGILLATGLHVHRSSAHSAGVGSIFDRVLTELVSKMKDMQMDKSELGCLRAIVLFNPDAKGLSNPSEVETLREKVYATLEAYTKQKYPEQPGRFAKLLLRLPALRSIGLKCLEHLFFFKLIGDTPIDTFLMEMLETPLQIT
partner: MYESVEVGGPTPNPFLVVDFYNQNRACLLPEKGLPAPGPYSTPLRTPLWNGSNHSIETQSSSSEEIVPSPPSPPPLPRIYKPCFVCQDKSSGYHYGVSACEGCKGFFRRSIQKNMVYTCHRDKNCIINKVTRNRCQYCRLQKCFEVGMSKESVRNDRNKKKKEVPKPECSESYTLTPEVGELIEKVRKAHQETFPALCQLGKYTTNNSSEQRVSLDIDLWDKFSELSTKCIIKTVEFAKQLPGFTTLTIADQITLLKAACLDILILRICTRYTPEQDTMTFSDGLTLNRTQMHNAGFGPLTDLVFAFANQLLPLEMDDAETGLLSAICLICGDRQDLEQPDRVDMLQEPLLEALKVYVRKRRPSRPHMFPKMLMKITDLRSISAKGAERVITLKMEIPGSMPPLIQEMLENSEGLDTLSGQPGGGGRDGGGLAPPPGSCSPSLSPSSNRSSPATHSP
B3: Alpha-crystallin B chain (Homo sapiens), P02511 (parent)
chain: MDIAIHHPWIRRPFFPFHSPSRLFDQFFGEHLLESDLFPTSTSLSPFYLRPPSFLRAPSWFDTGLSEMRLEKDRFSVNLDVKHFSPEELKVKVLGDVIEVHGKHEERQDEHGFISREFHRKYRIPADVDPLTITSSLSSDGVLTVNGPRKQVSGPERTIPITREEKPAVTAAPKK
partner: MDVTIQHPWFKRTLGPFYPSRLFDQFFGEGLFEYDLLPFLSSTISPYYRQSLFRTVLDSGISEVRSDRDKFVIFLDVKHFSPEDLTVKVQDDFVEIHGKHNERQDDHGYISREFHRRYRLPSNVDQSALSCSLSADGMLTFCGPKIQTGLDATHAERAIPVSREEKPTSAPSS
B4: ATP synthase mitochondrial F1 complex assembly factor 2 (Homo sapiens), Q8N5M1 (parent)
chain: MWRSCLRLRDGGRRLLNRPAGGPSASMSPGPTIPSPARAYAPPTERKRFYQNVSITQGEGGFEINLDHRKLKTPQAKLFTVPSEALAIAVATEWDSQQDTIKYYTMHLTTLCNTSLDNPTQRNKDQLIRAAVKFLDTDTICYRVEEPETLVELQRNEWDPIIEWAEKRYGVEISSSTSIMGPSIPAKTREVLVSHLASYNTWALQGIEFVAAQLKSMVLTLGLIDLRLTVEQAVLLSRLEEEYQIQKWGNIEWAHDYELQELRARTAAGTLFIHLCSESTTVKHKLLKE
partner: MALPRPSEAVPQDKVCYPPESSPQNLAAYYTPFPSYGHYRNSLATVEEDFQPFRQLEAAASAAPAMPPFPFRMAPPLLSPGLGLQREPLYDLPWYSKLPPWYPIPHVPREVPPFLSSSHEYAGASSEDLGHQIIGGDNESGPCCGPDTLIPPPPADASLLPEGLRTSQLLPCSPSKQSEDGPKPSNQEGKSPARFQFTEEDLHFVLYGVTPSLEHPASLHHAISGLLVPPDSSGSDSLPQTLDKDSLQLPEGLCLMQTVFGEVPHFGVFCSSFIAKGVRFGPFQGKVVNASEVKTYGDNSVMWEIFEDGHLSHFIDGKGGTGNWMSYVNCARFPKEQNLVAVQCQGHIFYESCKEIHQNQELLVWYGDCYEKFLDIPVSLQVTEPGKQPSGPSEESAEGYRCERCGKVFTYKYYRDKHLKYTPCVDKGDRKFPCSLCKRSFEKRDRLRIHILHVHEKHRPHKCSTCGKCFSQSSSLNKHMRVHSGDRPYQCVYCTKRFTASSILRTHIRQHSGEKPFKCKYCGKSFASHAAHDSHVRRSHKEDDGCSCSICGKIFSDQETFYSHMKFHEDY
B5: Keratin, type I cytoskeletal 18 (Homo sapiens), P05783 (parent)
chain: MSFTTRSTFSTNYRSLGSVQAPSYGARPVSSAASVYAGAGGSGSRISVSRSTSFRGGMGSGGLATGIAGGLAGMGGIQNEKETMQSLNDRLASYLDRVRSLETENRRLESKIREHLEKKGPQVRDWSHYFKIIEDLRAQIFANTVDNARIVLQIDNARLAADDFRVKYETELAMRQSVENDIHGLRKVIDDTNITRLQLETEIEALKEELLFMKKNHEEEVKGLQAQIASSGLTVEVDAPKSQDLAKIMADIRAQYDELARKNREELDKYWSQQIEESTTVVTTQSAEVGAAETTLTELRRTVQSLEIDLDSMRNLKASLENSLREVEARYALQMEQLNGILLHLESELAQTRAEGQRQAQEYEALLNIKVKLEAEIATYRRLLEDGEDFNLGDALDSSNSMQTIQKTTTRRIVDGKVVSETNDTKVLRH

Variants of: B1
Details: with sumo5_human SUMO1P1, G2XKQ0

Variant | effect of a mutation on the interaction
MGGSALNQGVLEGDDAPGQSLYERLSQRMLDISGDRGVLKDVIREGAGDLVAPDASVLVKYSGYLEHMDRPLDSNYFRKTPRLMKLGEDITLWGMELGLLSMRRGELARFLFKPNYAYGTLGCPPLIPPNTTVLFEIELLDFLDCAESDKFCALSAEQQDQFPLQKVLKVAATEREFGNYLFRQNRFYDAKVRYKRALLLLRRRSAPPEEQHLVEAAKLPVLLNLSFTYLKLDRPTIALCYGEQALIIDQKNAKALFRCGQACLLLTEYQKARDFLVRAQKEQPFNHDINNELKKLASCYRDYVDKEKEMWHRMFAPCGDGSTAGES [F72L] | disrupting interaction strength
MGGSALNQGVLEGDDAPGQSLYERLSQRMLDISGDRGVLKDVIREGAGDLVAPDASVLVKYSGYLEHMDRPFDSNYFRKTPRLMKLGEDITLWGMELGLLSMRRGELARFLFKPNYAYGTLGCPPLIPPNTTVLFEIELLDFLDCAESDKFCALSAEQQDQFPLQKVLKVAATEREFGNYLFRQNRFYDAKVRYKRALLLLHRRSAPPEEQHLVEAAKLPVLLNLSFTYLKLDRPTIALCYGEQALIIDQKNAKALFRCGQACLLLTEYQKARDFLVRAQKEQPFNHDINNELKKLASCYRDYVDKEKEMWHRMFAPCGDGSTAGES [R202H] | with no effect

Variants of: B2
Details: with RARA

Variant | effect of a mutation on the interaction
MYGNYSHFMKFPASYGGSPGHTGSTSMSPSAALSTGKPMDSHPSYTDTPVSAPRTLSAVGTPLNALGSPYRVITSAMGPPSGALAAPPGINLVAPPSSQLNVVNSVSSSEDIKPLPGLPGIGNMNYPSTSPGSLVKHICAICGDRSSGKHYGVYSCEGCKGFFKRTIRKDLIYTCRDNKDCLIDKRQRNRCQYCRYQKCLVMGMKREAVQEERQRSRERAESEAECATSGHEDMPVERILEAELAVEPKTESYGDMNMENSTNDPVTNICHAADKQLFTLVEWAKRIPHFSDLTLEDQVILLRAGWNELLIASFSHRSVSVQDGILLATGLHVHRSSAHSAGVGSIFDRVLTELVSKMKDMQMDKSELGCLRAIVLFNPDAKGLSNPSEVETLREKVYATLEAYTKQKYPEQPGRFAKLLLRLPALRSIGLKCLEHLFFFKLIGDTPIDTFLMEMLETPLQIT [G14S] | with no effect

Variants of: B3
Details: with cryaa_human CRYAA

Variant | effect of a mutation on the interaction
MDIAIHHPWIRRPFFPFHSSSRLFDQFFGEHLLESDLFPTSTSLSPFYLRPPSFLRAPSWFDTGLSEMRLEKDRFSVNLDVKHFSPEELKVKVLGDVIEVHGKHEERQDEHGFISREFHRKYRIPADVDPLTITSSLSSDGVLTVNGPRKQVSGPERTIPITREEKPAVTAAPKK [P20S] | with no effect
MDIAIHHPWIRRPFFPFHSPSRLFDQFFGEHLLESDLFPTSTSLSPFYLRPPSFLRAPSWFDTGLSEMRLEKDRFSVNLDVKHFSPEELKVKVLGDVIEVHGKHEERQDEHGFISREFHGKYRIPADVDPLTITSSLSSDGVLTVNGPRKQVSGPERTIPITREEKPAVTAAPKK [R120G] | with no effect
MDIAIHHPWIRRPFFPFHSPSRLFDQFFGEHLLESDLFPTSTSLSPFYLRPPSFLWAPSWFDTGLSEMRLEKDRFSVNLDVKHFSPEELKVKVLGDVIEVHGKHEERQDEHGFISREFHRKYRIPADVDPLTITSSLSSDGVLTVNGPRKQVSGPERTIPITREEKPAVTAAPKK [R56W] | with no effect
MDIAIHHPWIRRPFFPFHSPSRLFDQFFGEHLLESDLFPTSTSLSPFYLRPPSFLRAPSWFDTGLSEMRLEKDRFSVNLDVKHFSPEELKVKVLGDVIEVHGKHEERQDEHGFISREFHRKYRIPADVDPLTITSSLSSNGVLTVNGPRKQVSGPERTIPITREEKPAVTAAPKK [D140N] | with no effect

Variants of: B4
Details: with prd14_human PRDM14, Q9GZV8

Variant | effect of a mutation on the interaction
MWRSCLRLRDGGRRLLNRPAGGPSASMSPGPTIPSPARAYAPPTERKRFYQNVSITQGEGGFEINLDHRKLKTPQAKLFTVPSEALAIAVATERDSQQDTIKYYTMHLTTLCNTSLDNPTQRNKDQLIRAAVKFLDTDTICYRVEEPETLVELQRNEWDPIIEWAEKRYGVEISSSTSIMGPSIPAKTREVLVSHLASYNTWALQGIEFVAAQLKSMVLTLGLIDLRLTVEQAVLLSRLEEEYQIQKWGNIEWAHDYELQELRARTAAGTLFIHLCSESTTVKHKLLKE [W94R] | disrupting interaction strength

Variants of: B5
Details: with goga2_human GOLGA2, Q08379
Sequence of goga2_human GOLGA2, Q08379 (Q08379 whole entry): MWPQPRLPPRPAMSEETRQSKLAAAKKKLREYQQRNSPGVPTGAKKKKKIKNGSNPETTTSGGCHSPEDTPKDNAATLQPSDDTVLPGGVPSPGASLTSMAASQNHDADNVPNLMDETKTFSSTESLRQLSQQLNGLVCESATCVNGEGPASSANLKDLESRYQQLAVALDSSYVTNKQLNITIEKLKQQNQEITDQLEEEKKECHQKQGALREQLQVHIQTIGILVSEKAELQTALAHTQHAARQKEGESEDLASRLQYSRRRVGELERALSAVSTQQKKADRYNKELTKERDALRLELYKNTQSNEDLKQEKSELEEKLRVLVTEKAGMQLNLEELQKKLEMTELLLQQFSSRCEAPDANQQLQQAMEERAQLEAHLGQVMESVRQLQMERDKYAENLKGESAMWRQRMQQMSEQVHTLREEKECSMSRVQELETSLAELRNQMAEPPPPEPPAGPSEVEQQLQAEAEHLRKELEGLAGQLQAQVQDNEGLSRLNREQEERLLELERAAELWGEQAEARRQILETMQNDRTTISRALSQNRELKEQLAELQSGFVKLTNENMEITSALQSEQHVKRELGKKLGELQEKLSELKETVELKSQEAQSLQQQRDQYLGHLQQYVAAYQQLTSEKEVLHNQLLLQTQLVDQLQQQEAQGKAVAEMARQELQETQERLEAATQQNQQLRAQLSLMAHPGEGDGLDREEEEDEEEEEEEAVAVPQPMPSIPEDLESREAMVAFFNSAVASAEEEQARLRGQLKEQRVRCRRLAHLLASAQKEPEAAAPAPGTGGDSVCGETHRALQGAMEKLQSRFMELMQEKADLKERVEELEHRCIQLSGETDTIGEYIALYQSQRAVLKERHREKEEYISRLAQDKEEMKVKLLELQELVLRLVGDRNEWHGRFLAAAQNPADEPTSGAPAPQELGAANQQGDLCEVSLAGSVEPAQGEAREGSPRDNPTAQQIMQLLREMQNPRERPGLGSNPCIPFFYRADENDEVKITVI

Variant | effect of a mutation on the interaction
MSFTTRSTFSTNYRSLGSVQAPSYGARPVSSAASVYAGAGGSGSRISVSRSTSFRGGMGSGGLATGIAGGLAGMGGIQNEKETMQSLNDRLASYLDRVRSLETENRRLESKIREHLEKKGPQVRDWSLYFKIIEDLRAQIFANTVDNARIVLQIDNARLAADDFRVKYETELAMRQSVENDIHGLRKVIDDTNITRLQLETEIEALKEELLFMKKNHEEEVKGLQAQIASSGLTVEVDAPKSQDLAKIMADIRAQYDELARKNREELDKYWSQQIEESTTVVTTQSAEVGAAETTLTELRRTVQSLEIDLDSMRNLKASLENSLREVEARYALQMEQLNGILLHLESELAQTRAEGQRQAQEYEALLNIKVKLEAEIATYRRLLEDGEDFNLGDALDSSNSMQTIQKTTTRRIVDGKVVSETNDTKVLRH [H128L] | with no effect

Variants of: B5
Details: with hgs_human HGS

Variant | effect of a mutation on the interaction
MSFTTRSTFSTNYRSLGSVQAPSYGARPVSSAASVYAGAGGSGSRISVSRSTSFRGGMGSGGLATGIAGGLAGMGGIQNEKETMQSLNDRLASYLDRVRSLETENRRLESKIREHLEKKGPQVRDWSLYFKIIEDLRAQIFANTVDNARIVLQIDNARLAADDFRVKYETELAMRQSVENDIHGLRKVIDDTNITRLQLETEIEALKEELLFMKKNHEEEVKGLQAQIASSGLTVEVDAPKSQDLAKIMADIRAQYDELARKNREELDKYWSQQIEESTTVVTTQSAEVGAAETTLTELRRTVQSLEIDLDSMRNLKASLENSLREVEARYALQMEQLNGILLHLESELAQTRAEGQRQAQEYEALLNIKVKLEAEIATYRRLLEDGEDFNLGDALDSSNSMQTIQKTTTRRIVDGKVVSETNDTKVLRH [H128L] | with no effect

Variants of: B5
Details: with syce1_human SYCE1, Q8N0S2
Sequence of syce1_human SYCE1, Q8N0S2 (Q8N0S2 whole entry): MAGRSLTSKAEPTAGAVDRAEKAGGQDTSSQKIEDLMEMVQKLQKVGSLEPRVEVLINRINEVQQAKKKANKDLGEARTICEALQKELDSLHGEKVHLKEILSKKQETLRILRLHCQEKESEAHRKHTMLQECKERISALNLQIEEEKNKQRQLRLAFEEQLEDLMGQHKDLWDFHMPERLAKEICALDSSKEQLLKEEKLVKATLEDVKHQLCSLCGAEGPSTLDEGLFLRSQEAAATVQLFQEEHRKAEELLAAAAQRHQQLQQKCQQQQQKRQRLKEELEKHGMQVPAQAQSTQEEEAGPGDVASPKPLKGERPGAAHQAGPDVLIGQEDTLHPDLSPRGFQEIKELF

Variant | effect of a mutation on the interaction
MSFTTRSTFSTNYRSLGSVQAPSYGARPVSSAASVYAGAGGSGSRISVSRSTSFRGGMGSGGLATGIAGGLAGMGGIQNEKETMQSLNDRLASYLDRVRSLETENRRLESKIREHLEKKGPQVRDWSLYFKIIEDLRAQIFANTVDNARIVLQIDNARLAADDFRVKYETELAMRQSVENDIHGLRKVIDDTNITRLQLETEIEALKEELLFMKKNHEEEVKGLQAQIASSGLTVEVDAPKSQDLAKIMADIRAQYDELARKNREELDKYWSQQIEESTTVVTTQSAEVGAAETTLTELRRTVQSLEIDLDSMRNLKASLENSLREVEARYALQMEQLNGILLHLESELAQTRAEGQRQAQEYEALLNIKVKLEAEIATYRRLLEDGEDFNLGDALDSSNSMQTIQKTTTRRIVDGKVVSETNDTKVLRH [H128L] | with no effect
